Positions count from the first letter of the chain named. Names may count otherwise.
B1: wild-type FtsY(47-497) (domain or fragment, Escherichia coli, UniProt P10121 47-497, looked up)
chain: ASEQAVEEQPQAHTEAEAETFAADVVEVTEQVAESEKAQPEAEVVAQPEPVVEETPEPVAIEREELPLPEDVNAEAVSPEEWQAEAETVEIVEAAEEEAAKEEITDEELETALAAEAAEEAVMVVPPAEEEQPVEEIAQEQEKPTKEGFFARLKRSLLKTKENLGSGFISLFRGKKIDDDLFEELEEQLLIADVGVETTRKIITNLTEGASRKQLRDAEALYGLLKEEMGEILAKVDEPLNVEGKAPFVILMVGVNGVGKTTTIGKLARQFEQQGKSVMLAAGDTFRAAAVEQLQVWGQRNNIPVIAQHTGADSASVIFDAIQAAKARNIDVLIADTAGRLQNKSHLMEELKKIVRVMKKLDVEAPHEVMLTIDASTGQNAVSQAKLFHEAVGLTGITLTKLDGTAKGGVIFSVADQFGIPIRYIGVGERIEDLRPFKADDFIEALFARED
notes: FtsY, SRP receptor, Escherichia coli, residues 47-497; also called SRP receptor; SR; source: expressed and purified as in Powers and Walter 1997; Peluso et al. 2001
B2: FtsY A335(140)W (domain or fragment, Escherichia coli, UniProt P10121 47-497, looked up)
chain: B1 chain with A289W
notes: FtsY, Escherichia coli, residues 47-497, with A335W; number in parentheses is the T. aquaticus number; also called mutant FtsY A335(140)W; Class II mutant; source: expressed and purified as wild-type FtsY (Powers and Walter 1997; Peluso et al. 2001)

Legend:
[1] = target: T1, Ffh (UniProt P0AGD7 1-453); test: other fluorescence titration; tryptophan fluorescence of FtsY, time course at 335 nm; 1 uM mutant or wild-type FtsY, 2 uM SRP, 100 uM GppNHp, complex formation started by addition of Mg2+; details: both partners purified
T1 construct: Ffh, the GTPase of the bacterial signal recognition particle; The methods of the fluorescence experiment name 'SRP' (2 uM), not Ffh alone; also called SRP GTPase; wild-type Ffh
T1 sequence (looked up): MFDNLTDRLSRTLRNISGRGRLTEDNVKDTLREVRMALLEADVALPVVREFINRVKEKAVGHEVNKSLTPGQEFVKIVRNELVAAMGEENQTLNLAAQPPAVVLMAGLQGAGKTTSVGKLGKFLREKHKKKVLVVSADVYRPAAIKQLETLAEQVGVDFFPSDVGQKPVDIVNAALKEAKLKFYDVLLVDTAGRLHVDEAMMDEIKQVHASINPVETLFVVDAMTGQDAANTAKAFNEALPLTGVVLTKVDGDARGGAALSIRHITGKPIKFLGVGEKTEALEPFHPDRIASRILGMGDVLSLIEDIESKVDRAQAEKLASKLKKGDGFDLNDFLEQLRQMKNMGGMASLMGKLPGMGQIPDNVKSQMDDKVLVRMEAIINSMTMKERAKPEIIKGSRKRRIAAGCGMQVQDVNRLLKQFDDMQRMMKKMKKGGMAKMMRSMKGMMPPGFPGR

[2] = target: T1, Ffh; test: GTPase inhibition (competition) assay; mutant FtsY varied as inhibitor of the GTPase reaction of Ffh with subsaturating wild-type FtsY; under these conditions Ki equals Kd of the Ffh-FtsY(mt) complex; fit to equation 3; details: both partners purified

Binder | koff [1] [s⁻¹] | kon [1] [M⁻¹ s⁻¹] | Ki [2] [nM]
B1 | 0.0036 | 63600 | 
B2 | 0.0042 | 63400 | 16

From paper PMC517823, “Mechanism of Association and Reciprocal Activation of Two GTPases” (PLoS Biology, 2004)
